Measurements reported in publication PMC4236683, “Semaphorin 5A inhibits synaptogenesis in early postnatal- and adult-born hippocampal dentate granule cells” (eLife, 2014).

Assays:
[1] = target: T1, full-length PlexA1 with an N-terminal 6xMyc tag (mouse, UniProt P70206 28-1894); assay: saturation binding of AP-clustered Fc fusion protein to transfected cells; saturation binding curve of Sema5A-Fc, oligomerized with anti-Fc conjugated to human placental alkaline phosphatase, on COS7 cells expressing PlexA1 or PlexA2; details: one partner purified
T1 construct: Plexin-A1, mouse, full length (FL); written as one molecule; also called PlexinA1; Myc-FL-A1; source: COS7, transiently transfected, on cells; HEK293T, transfected, in lysate; not shown: 6xMyc, N-terminal, kept
T1 sequence (P70206 28-1894): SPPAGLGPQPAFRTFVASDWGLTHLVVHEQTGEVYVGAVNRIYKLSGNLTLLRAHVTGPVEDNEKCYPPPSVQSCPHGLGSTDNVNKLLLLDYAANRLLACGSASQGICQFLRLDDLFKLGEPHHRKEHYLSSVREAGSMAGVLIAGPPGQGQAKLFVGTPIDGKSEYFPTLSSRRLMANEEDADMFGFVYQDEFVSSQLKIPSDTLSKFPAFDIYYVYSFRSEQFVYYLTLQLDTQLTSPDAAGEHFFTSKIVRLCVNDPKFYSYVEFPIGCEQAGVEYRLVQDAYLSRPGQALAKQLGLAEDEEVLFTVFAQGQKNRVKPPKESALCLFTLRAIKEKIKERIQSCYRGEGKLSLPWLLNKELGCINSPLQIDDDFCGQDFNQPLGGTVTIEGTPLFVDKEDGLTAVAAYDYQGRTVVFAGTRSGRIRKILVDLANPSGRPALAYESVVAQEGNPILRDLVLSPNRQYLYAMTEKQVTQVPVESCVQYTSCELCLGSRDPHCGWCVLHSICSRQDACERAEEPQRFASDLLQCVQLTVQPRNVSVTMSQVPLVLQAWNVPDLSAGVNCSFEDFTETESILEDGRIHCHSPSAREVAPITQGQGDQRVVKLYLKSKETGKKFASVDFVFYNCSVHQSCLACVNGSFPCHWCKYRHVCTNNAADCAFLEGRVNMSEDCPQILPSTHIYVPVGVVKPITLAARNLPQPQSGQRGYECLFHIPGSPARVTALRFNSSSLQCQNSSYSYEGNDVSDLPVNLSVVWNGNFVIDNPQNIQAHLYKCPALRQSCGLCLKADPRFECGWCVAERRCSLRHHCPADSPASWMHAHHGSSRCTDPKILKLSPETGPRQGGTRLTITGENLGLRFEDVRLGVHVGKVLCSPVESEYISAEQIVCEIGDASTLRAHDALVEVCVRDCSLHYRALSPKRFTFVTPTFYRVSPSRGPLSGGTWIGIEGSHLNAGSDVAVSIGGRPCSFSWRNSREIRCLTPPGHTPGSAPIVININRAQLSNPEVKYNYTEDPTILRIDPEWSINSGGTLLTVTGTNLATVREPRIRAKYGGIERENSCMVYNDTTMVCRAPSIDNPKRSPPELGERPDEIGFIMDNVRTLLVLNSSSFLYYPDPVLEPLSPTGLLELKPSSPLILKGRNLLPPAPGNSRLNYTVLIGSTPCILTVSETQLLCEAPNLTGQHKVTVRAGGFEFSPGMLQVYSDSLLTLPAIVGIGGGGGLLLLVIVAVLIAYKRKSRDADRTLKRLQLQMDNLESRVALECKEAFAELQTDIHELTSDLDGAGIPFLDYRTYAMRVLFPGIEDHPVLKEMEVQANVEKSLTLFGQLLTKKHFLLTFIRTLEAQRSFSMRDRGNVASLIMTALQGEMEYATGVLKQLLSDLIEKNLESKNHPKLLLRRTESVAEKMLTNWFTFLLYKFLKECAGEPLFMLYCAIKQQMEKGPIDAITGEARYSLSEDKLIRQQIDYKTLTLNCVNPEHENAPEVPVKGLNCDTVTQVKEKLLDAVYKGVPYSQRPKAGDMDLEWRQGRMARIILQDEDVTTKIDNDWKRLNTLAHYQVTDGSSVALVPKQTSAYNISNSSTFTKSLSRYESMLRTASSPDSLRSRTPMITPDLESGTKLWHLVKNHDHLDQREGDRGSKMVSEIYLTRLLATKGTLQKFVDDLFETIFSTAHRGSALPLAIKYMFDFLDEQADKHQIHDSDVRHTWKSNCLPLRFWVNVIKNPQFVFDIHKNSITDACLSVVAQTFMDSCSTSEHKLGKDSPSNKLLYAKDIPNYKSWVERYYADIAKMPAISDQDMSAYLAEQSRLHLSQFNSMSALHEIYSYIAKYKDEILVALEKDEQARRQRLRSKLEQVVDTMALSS

[2] = target: T2, full-length PlexA2 with an N-terminal 6xMyc tag (mouse, UniProt P70207 35-1894); assay: as above; details: one partner purified
T2 construct: Plexin-A2, mouse, full length (FL); written as one molecule; also called PlexinA2; Myc-FL-A2; source: COS7, transiently transfected, on cells; HEK293T, transfected, in lysate; not shown: 6xMyc, N-terminal, kept
T2 sequence (P70207 35-1894): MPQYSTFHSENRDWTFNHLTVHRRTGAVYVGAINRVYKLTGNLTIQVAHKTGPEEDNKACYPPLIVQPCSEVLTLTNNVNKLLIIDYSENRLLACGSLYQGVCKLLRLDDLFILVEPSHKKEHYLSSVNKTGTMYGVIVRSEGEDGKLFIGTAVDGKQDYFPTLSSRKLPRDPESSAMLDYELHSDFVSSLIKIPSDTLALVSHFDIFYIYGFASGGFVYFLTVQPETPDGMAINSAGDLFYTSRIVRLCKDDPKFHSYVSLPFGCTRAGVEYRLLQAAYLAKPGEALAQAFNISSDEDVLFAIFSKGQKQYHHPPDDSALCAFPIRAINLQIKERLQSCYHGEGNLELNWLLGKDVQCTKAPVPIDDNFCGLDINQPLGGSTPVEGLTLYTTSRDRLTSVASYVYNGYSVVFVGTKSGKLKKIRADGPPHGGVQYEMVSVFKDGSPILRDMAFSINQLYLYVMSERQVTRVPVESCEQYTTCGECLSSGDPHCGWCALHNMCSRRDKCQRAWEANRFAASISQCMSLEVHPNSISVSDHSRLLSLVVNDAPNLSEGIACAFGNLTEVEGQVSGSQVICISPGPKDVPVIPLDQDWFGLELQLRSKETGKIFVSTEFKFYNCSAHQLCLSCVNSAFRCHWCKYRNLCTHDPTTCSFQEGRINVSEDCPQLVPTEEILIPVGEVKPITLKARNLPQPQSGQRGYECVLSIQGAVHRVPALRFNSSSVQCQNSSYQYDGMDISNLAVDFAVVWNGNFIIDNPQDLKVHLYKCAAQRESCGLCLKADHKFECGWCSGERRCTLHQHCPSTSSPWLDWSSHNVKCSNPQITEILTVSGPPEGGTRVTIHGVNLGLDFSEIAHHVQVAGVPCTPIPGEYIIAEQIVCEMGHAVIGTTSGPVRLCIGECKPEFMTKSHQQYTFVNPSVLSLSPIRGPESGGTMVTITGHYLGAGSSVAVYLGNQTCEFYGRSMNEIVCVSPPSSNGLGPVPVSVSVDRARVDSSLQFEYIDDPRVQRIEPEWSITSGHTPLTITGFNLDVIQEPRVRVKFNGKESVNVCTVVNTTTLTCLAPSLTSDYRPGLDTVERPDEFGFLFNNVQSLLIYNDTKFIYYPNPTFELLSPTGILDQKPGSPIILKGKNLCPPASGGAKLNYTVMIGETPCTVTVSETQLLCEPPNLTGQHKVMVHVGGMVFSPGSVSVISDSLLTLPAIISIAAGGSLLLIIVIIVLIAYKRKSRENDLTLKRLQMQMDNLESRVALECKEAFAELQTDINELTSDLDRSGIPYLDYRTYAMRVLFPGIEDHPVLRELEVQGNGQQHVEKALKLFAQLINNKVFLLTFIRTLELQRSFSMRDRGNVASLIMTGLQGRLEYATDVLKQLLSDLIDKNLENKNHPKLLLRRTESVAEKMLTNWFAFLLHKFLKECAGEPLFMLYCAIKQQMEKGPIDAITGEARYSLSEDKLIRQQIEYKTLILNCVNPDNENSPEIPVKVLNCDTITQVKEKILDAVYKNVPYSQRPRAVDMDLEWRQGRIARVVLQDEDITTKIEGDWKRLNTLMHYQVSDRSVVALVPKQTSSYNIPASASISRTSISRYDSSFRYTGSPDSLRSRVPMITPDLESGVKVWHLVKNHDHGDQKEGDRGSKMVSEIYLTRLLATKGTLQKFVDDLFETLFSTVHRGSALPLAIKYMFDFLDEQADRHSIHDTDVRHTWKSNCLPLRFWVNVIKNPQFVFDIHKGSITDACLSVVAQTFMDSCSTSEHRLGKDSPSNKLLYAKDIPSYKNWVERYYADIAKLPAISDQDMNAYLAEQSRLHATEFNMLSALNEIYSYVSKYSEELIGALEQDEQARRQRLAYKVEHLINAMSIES

B1: Sema5A-Fc (Sema5A ectodomain fused to Fc) (Fc fusion, rat, UniProt D3ZTD8 23-961, looked up)
chain: ETQDPAKCQRAEHPVVSYKEIGPWLREFRAENAVDFSRLTFDPGQKELVVGARNYLFRLQLEDLSLIQAVQWECDEATKKACYSKGKSKEECQNYIRVLLVGGDRLFTCGTNAFTPVCTIRSLSNLTEIHDQISGMARCPYSPQHNSTALLTASGELYAATAMDFPGRDPAIYRSLGTLPPLRTAQYNSKWLNEPNFVSSYDIGNFTYFFFRENAVEHDCGKTVFSRAARVCKNDIGGRFLLEDTWTTFMKARLNCSRPGEVPFYYNELQSTFFLPELDLIYGIFTTNVNSIAASAVCVFNLSAISQAFNGPFKYQENSRSAWLPYPNPNPNFQCGTMDQGLYVNLTERNLQDAQKFILMHEVVQPVTTVPSFMEDNSRFSHVAVDVVQGRDTLVHIIYLATDYGTIKKVRAPLSQSSGSCLLEEIELFPERKSEPIRSLKILHSQSVLFVGLQEHVVKIPLKRCHFHQTRGACIGAQDPYCGWDAVMKKCTSLEESLSMTQWDQSVPTCPTRNLTVDGSFGPWSPWTPCTHTDGTAVGSCLCRSRSCDSPAPQCGGWQCEGPRMEITNCSRNGGWTPWTSWSPCSTTCGIGFQVRQRSCSNPTPRHGGRVCVGQNREERYCNEHLLCPPHVFWTGWGPWERCTAQCGGGIQARRRTCENGPDCAGCNVEYQPCNTNACPELKKTTPWTPWTPVNISDNGGHYEQRFRYTCKARLPDPNLLEVGRQRIEMRYCSSDGTSGCSTDGLSGDFLRAGRYSAHTVNGAWSAWTSWSQCSRDCSRGIRNRKRVCNNPEPKYGGMPCLGPSLEFQECNILPCPVDGVWSCWSSWSKCSATCGGGHYMRTRSCTNPAPAYGGDICLGLHTEEALCNTQTCPENWSEWSEWSVCDASGTQVRTRQCILLFPVGSQCSGNTTESRPCVFDSNFIPEVSVARSSSVEEK
notes: signal peptide in the construct; Sema5A ectodomain, rat cDNA NM_001107659, residues 1-961; Assembled in pcDNA3.0; also called Fc-tagged Sema5A ectodomain protein
B1 was tested, and the Kd [1] was 10 nM and the Kd [2] was 13 nM.
